From patent US20090148863A1

Key:
[1] = target: protein A (PrA) from Staphylococcus aureus (Staphylococcus aureus) (UniProt P38507); assay: UV-vis absorbance change, 1.1 nM AgMMUA-IgG with about 100 nM PrA in PBS
[2] = target: T-ZZ (transmembrane/translocation (T) domain of diphtheria toxin fused at its C-terminus with ZZ, a small portion of protein A) (UniProt P00588); assay: slope of FIG. 6A in the first 60 min, 11.12 nM AgMMUA-IgG, T-ZZ at 0.37 molecules/um^2 on living cells
[3] = target: T-ZZ (transmembrane/translocation (T) domain of diphtheria toxin fused at its C-terminus with ZZ, a small portion of protein A) (UniProt P00588); assay: isotherm of the fraction of bound T-ZZ on living cells against AgMMUA-IgG concentration at equilibrium (SNOMS)
[4] = target: protein A (PrA) from Staphylococcus aureus (Staphylococcus aureus) (UniProt P38507); assay: UV-vis absorbance against time, simulation matched to the data of FIG. 3B
[5] = target: T-ZZ (transmembrane/translocation (T) domain of diphtheria toxin fused at its C-terminus with ZZ, a small portion of protein A) (UniProt P00588); assay: slope of FIG. 6A in the first 60 min, 5.56 nM AgMMUA-IgG, T-ZZ at 0.37 molecules/um^2 on living cells
[6] = target: protein A (PrA) from Staphylococcus aureus (Staphylococcus aureus) (UniProt P38507); assay: UV-vis absorbance, average of equilibrium and kinetic methods, three repeats
[7] = target: T-ZZ (transmembrane/translocation (T) domain of diphtheria toxin fused at its C-terminus with ZZ, a small portion of protein A) (UniProt P00588); assay: slope of FIG. 6B, 2.78 nM AgMMUA-IgG, T-ZZ at 0.21 molecules/um^2 on living cells
[8] = target: T-ZZ (transmembrane/translocation (T) domain of diphtheria toxin fused at its C-terminus with ZZ, a small portion of protein A) (UniProt P00588); assay: counting single bound nanoparticles on living cells with T-ZZ against time (SNOMS, FIG. 6A)
[9] = target: T-ZZ (transmembrane/translocation (T) domain of diphtheria toxin fused at its C-terminus with ZZ, a small portion of protein A) (UniProt P00588); assay: slope of FIG. 6A in the first 60 min, 1.39 nM AgMMUA-IgG, T-ZZ at 0.37 molecules/um^2 on living cells
[10] = target: T-ZZ (transmembrane/translocation (T) domain of diphtheria toxin fused at its C-terminus with ZZ, a small portion of protein A) (UniProt P00588); assay: slope of FIG. 6A in the first 60 min, 2.78 nM AgMMUA-IgG, T-ZZ at 0.37 molecules/um^2 on living cells
[11] = target: T-ZZ (transmembrane/translocation (T) domain of diphtheria toxin fused at its C-terminus with ZZ, a small portion of protein A) (UniProt P00588); assay: single nanoparticle imaging on living cells with T-ZZ, value given in the summary
[12] = target: protein A (PrA) from Staphylococcus aureus (Staphylococcus aureus) (UniProt P38507); assay: UV-vis absorbance against time, slope of FIG. 3C

Sequence of UniProt P00588 (P00588 234-410): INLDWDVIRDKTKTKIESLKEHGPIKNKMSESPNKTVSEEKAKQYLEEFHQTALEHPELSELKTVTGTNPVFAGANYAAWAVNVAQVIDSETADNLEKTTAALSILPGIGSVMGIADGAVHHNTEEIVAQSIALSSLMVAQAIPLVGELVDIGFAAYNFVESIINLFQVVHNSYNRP

Substance “AgMMUA-IgG nanoparticles (immunoglobulin G from rabbit serum covalently conjugated to 11.6 nm Ag nanoparticles carrying a mixed MUA/MCH monolayer) (antibody)” has an amount of AgMMUA-IgG nanoparticles bound with PrA at equilibrium [1] of 0.14 nM, a binding rate (molecules/min) [2] of 27 and a Ka [3] of 4.8e+07 M⁻¹. The koff [4] was 5.4e-05 s⁻¹, the binding rate (molecules/min) [5] was 20 and the Ka [6] was 1.9e+06 M⁻¹. For the same substance, the binding rate (molecules/min) [7] was 2.3, the Ka [8] was 3e+07 M⁻¹ and the koff [8] was 0.0003 s⁻¹. For the same substance, the kon [8] was 9000 M⁻¹ s⁻¹, the binding rate (molecules/min) [9] was 3 and the binding rate (molecules/min) [10] was 5.3. The Ka [11] was 4.3e+07 M⁻¹ and the kon [12] was 120 M⁻¹ s⁻¹.
